In a protein production outcome set (Wang et al. 2014):

assay: label from the status in PepcDB records
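Also: failed if final PepcDB status was selected cloned or expressed and not failed if soluble or beyond.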

Row | Sequence | protein production
1 | TIDPKAQKAAWDGLTDLKGARGAVVALDPQTGKVLAMVSAPSYDPSAFAGSTFKESDRFVELDKKKNKPLANRALRETYPPGSTFKILTAAAALEHGIVTDVDARTDAVSPYPLPQSTNKIGSEAGDAVCNKASMKTAMQHSCNNVFLDAASKLGQDKMRETAEKFGFNEDVYSDDFGDLLATKSLYPEDLDKPGTALTGMGQGSLTSTPMQMALVTAGIANDGKVMQPYVVDEVKGPDLDTLEKTEPAVMSEAVSAETAQKVQEMMEFTAKEGSARRAQIDGITVGGKTGTAQRGVDVNDEVPYGWFVSYGKKDDGSSVAVAVFIDPTDMDISRADISGGGLGAPIAKSVMKAVLK | failed
2 | TIDRDIQWAAQNAITEQVEKSGADRGYVMVQDTRTGEILAMANSPGFDPNDLSKASSAALGNAALQDAYEPGSTAKVMSMAAVLEENVATPETHVVVPNRLHRGDRLFQDDIDHPTWNLTLNGVLAKSSNIGTILAAGQLGKTQKQANEVLYSYMRKFGIGLPTGLGFPGETSGILAPAAKWSTSQQYTIPFGQGVSINAMQAASVYSTIANGGVRVEPTLVRGTKGPDGRFTPAPRPKKTRVVSEKTAKTLAQMLESVVDDEEGTGAKARIPGYRVAGKTGTANRVDPATGKYHGYTSSFAGFAPADNPRITVYCAIQNATQGSYFGGQICGPIYKQVMEFALKTLQVPPTGAGAAHLPVTFTP | failed
3 | TKALNFTYTLDSGVKGTLYQFPAEYTLLFINNPGCHACAEMIEGLKASPVINGFTAAKKLKVLSIYPDEELDEWKKHRNDFAKEWTNGYDKELVIKNKNLYDLRAIPTLYLLDKNKTVLLKDATLQKVEQYLAERG | not failed
4 | TKDWKFTVSMNTAYNKNKIISLPYNGLPNNMQDAYQVYTGRKLADGTYERQWVGGYQEGQEYGVIYAFKSLGIYKSESEIPGNLIDRSTYTENGADAKVLYGPEAWAKLSDAEKEKGLPIQAGDVKWQDVNGDGVIDDYDRVKLGNTIPHWTGGFNINTSWKGLTLNCRLDYALGYWVHDWKTPWIMGNMQGTFNTISLVKDSWSESNPNGKYPVYGWADFLGKRNYDRISDINCYRGDYLAFREISLSYSLPQSWIHKSGLSKVDVSVTAQNLGYITAAKNMATPEYGVSQNGGYPLPRTVVLGLNVTF | failed
5 | TLDAGLQRQLEDLALNWKSRLPPRSSLAMVVVDHTDMKVRGWVGSADITDDSRFGHIDMVSAVRSPGSVLKPFIYAMAMDEGLIHPASLLQDVPRRFSDYRPGNFDSGFHGPVSASEALVRSLNLPAVQVLEAYGPKRFAANLRNAGLPLTLPAGAEPNLSLILGGAGARLEDIVAAYSAFARHGKAARLRLKPSDPLTERALMSPGAAWIVRRILAGEAQPVPDASLPQAVPLAWKTGTSYGYRDAWAVGLNARYLIGIWTGRPDGTPVVGQFGFASAVPLLNQVNNLLLARPAMSRGGL | failed
6 | TLDPSAQAIAEAALARGVQAHQGQYGAVIMLETRTGRILAAATYPPFDPGNWRGKPDTQERVKNRAFLDAYEPGSTMKALTIAAALNDGITTPDTVYETPMSRHVGGRWGHTIGDAVDHPSSLTTQQVLRYSSNVGMSHIVEGFTYQKLRDYLAAYGFGQPVNLTGAVTAQGILKPIDKWNDLERATNSFGQGVSGTTLQVAAAYNAVANDGLYVTPRLIEGAPAGERHEVVRAASARTVREMLKAIVVEGKFASLEGYDLSGKTGTAQVATENGYSNSVYKSTYAGFFPSDTPRVTVAVMVHGAQGEHHGSQVAAPIFREIASGMLSEWGTAPE | failed
7 | TLLLCFIVAGLTGLGDNFTTISWFTFLDFRVQGDYLYFSPLAQSLDEGQWWRLVSPMLLHFGVLHLAMNSLWYWELGKRIELRQGPWALLGLTLLFSLVSNLAQHYTSGPSLFGGLSGVLYGLLGHIWLYQWLAPDRYFNLPKGVLVMMLIWLVVCLTGVVGTLGLGQIANAAHVGGLLIGCLTGLLGGALARRKLSA | failed
8 | TLPPRGRLRIDVPLALAHAILIPNLKHFQSLYPDIDVILVSSDKKTDLISEGVDCLVRLGELQDSSFISRRLGDIRMVTCAAPSYLQQYGRPETLADLDQHRAINFFSDHSRDVMEWKFTKDGKIVSLRPVGSMLVDNSDILL | failed
9 | TLQEYQKRMKKLDQQYKERIRNAELFLQLETEQVERNYIKEKKAAVKEFEDKKVELKENLIAELEEKKKMIENEKLTMELTGDSMEVKPIMTRKLRRRPNDPVPIPDKRRKPAPAQLNYLLTDEQIMEDLRTLNKLKSPKRPASPSSPEHLPATPAESPAQRFEARIEDGKLYYDKRWYHKSQAIYLESKDNQKLSCVISSVGANEIWVRKTSDSTKMRIYLGQLQRGLFVIRRRSAA | failed
10 | TLRNYPLTCKVVYSYKASQPDELTIEEHEVLEVIEDGDMEDWVKARNKVGQVGYVPEKYLQFPTS | not failed
11 | TPVRIESFDNSNIMGTSPVSAMVVFVNGKPSKKDYRKYKIKTVVGPDDYASMREVIRRRYGRVQREALTPPDLIVIDGGQGQVNIAKQVIQEELGLDIPIAGLQKNDKHQTHELLFGDPLEVVDLSRNSQEFFLLQRIQDEVHRFAITFHRQLRSKNSFSSQLDGIDG | failed
12 | TSSTIFSGVAIYVNGYTDPSAEELRKLMMLHGGQYHVYYSRSKTTHIIATNLPNAKIKELKGEKVIRPEWIVESIKAGRLLSYIPYQLYT | not failed
13 | TTQKGHRQKSFYRGVRAEKWAAWWLRCKGFHIAEIRFKTKCGEIDLIARRGNLVLIVEVKARSTLAEAMAAVSRVNERRIEAAADIWLARQKDRALLCVRFDLIAILPWRWPQHIPAFFM | failed
14 | TVACPGRGRARPVCWKRSEMATCAVEVFGLLEDEENSRIVRVRVIAGIGLAKKDILGASDPYVRVTLYDPMNGVLTSVQTKTIKKSLNPKWNEEILFRVHPQQHRLLFEVFDENRLTRDDFLGQVDVPLYPLPTENPRLERPYTFKDFVLHPRSHKSRVKGYLRLKMTYLPKTSGSEDDNAEQAEELEPGWVVLDQPDAACH | failed
15 | TVLYVHGGAWFQDPLENHFEYLDLLVDALDARVIMPVYPKIPHRDYRTTFELLTKIYKRLLTKIDEPENLVIIGDSAGGQIALAFAQMLKKEQLSQPGHIVLISPVLDATFKNPEARKYEKEDPMLGIDGSKYLVELWAGDAPLDDYKMSPMNGDLEGLGHITLTVGTKETLYPDAVKFSHMLNDKGIKHQFIPGYNLFHIYPLFPIPERQRFLEQLKKIIVTKEL | failed
16 | TYNYYDHAASAGTGQYLNDVQVETIELPVDYDADFVIPVYGDSMEPKYHSGDYVFVKLSVELTDGDIGVFEYYGDAYIKQLLINDKGAFLHSLNQCGDYPDIPIDRDSDFRIIGEVMGSYRER | failed
17 | VASGYGGIRVGGPYFDDLSKGQVFDWAPGVTLSLGLAAAHQSIVGNRLRLALDSDLCAAVTGMPGPLAHPGLVCDVAIGQSTLATQRVKANLFYRGLRFHRFPAVGDTLYTRTEVVGLRANSPKPGRAPTGLAGLRMTTIDRTDRLVLDFYRCAMLPASPDWKPGAVPGDDLSRIGADAPAPAADPTAHWDGAVFRKRVPGPHFDAGIAGAVLHSTADLVSGAPELARLTLNIAATHHDWRVSGRRLVYGGHTIGLALAQATRLLPNLATVLDWESCDHTAPVHEGDTLYSELHIESAQAHADGGVLGLRSLVYAVSDSASEPDRQVLDWRFSALQF | not failed
18 | VAYLGPAGTFTEEALYKFADAGVFGDGEIEQLPAKSPQEAVDAVRHGTAQFAVVAIENFVDGPVTPTFDALDQGSNVQIIAEEELDIAFSIMVRPGTSLADVKTLATHPVGYQQVKNWMATTIPDAMYLSASSNGAGAQMVAEGTADAAAAPSRAAELFGLERLVDDVADVRGARTRFVAVQAQAA | failed
19 | VDCIGCRKCEEVCLSDALDIMGKDVSVSELMDIIMQDYDFYISSGGGVTIGGGEMSLQTDFAVALLRECKKMMINTAVETQATTNVANYEKLAQVVDQFLIDIKHIDTTQHKALFGIGNENVRRNLERLMDLGANVVIRMPLVRGYNDSYDAITGAINYAMALSKRGNLQRIDILPYHQFGRN | failed
20 | VDIVVIGAGFTGLSTAYHIRKTDSSASVVVLEGECVAFGASGRTSGWVVPIPVLDPATARTLYGKERLTELQNFAWDGLDYVRDLISRENMDSDFEVPGVTFTTLKGHEKRLETFIKYWKDQPRSSDSIIMDKATVSNALNSDAFSGGCRMLHSGQVNPVKHSRELKRIAQEAGAQIFEQTPVLDIEDHGTYFILKTPEGQVRTKHIVLGTNGFTHLLPATLGLRRAQLPMFVYQLMTEPLSEADWKALGWKHRAQFYDKTTYCPPTCRTTVDGRLQFNLCDVYLGTGRSMDEAQRMQFYDAAERMYKKMFPAFKNLRVAQRWSGACSISFDVRPQVGTLHDGRISYGYGYSGAGVMMSQNFGRILADLALQRKTELTE | failed
